From patent US10487318 come the findings set out here.

Sequences and labels used below:
B1: Kumamolysin-As N291D, Q361D (protein)
chain: MSDMEKPWKEGEEARAVLQGHARAQAPQAVDKGPVAGDERMAVTVVLRRQRAGELAAHVERQAAIAPHAREHLKREAFAASHGASLDDFAELRRFADAHGLALDRANVAAGTAVLSGPVDAINRAFGVELRHFDHPDGSYRSYLGEVTVPASIAPMIEAVLGLDTRPVARPHFRMQRRAEGGFEARSQAAAPTAYTPLDVAQAYQFPEGLDGQGQCIAIIELGGGYDEASLAQYFASLGVPAPQVVSVSVDGASNQPTGDPSGPDGEVELDIEVAGALAPGAKFAVYFAPDTDAGFLDAITTAIHDPTLKPSVVSISWGGPEDSWTSAAIAAMNRAFLDAAALGVTVLAAAGDSGSTDGEDDGLYHVDFPAASPYVLACGGTRLVASGGRIAQETVWNDGPDGGATGGGVSRIFPLPAWQEHANVPPSANPGASSGRGVPDLAGNADPATGYEVVIDGEATVIGGTSAVAPLFAALVARINQKLGKAVGYLNPTLYQLPADVFHDITEGNNDIANRAQIYQAGPGWDPCTGLGSPIGVRLLQALLPSASQPQPGSTENLYFQSGALEHHHHHH
B2: Kumamolysin-As N291D, D293A (protein)
chain: B1 chain with D293A, D361Q
B3: Kumamolysin-As N291D, G319S, S354N, D358G, D368H (protein)
chain: B1 chain with G319S, S354N, D358G, D361Q, D368H
B4: Kumamolysin-As N291D, D358N (protein)
chain: B1 chain with D358N, D361Q
B5: Kumamolysin-As S262K, D293N, N291D, G319S, D358G, D368H (protein)
chain: B1 chain with S262K, D293N, G319S, D358G, D361Q, D368H
B6: Kumamolysin-As D293T, N291D, G319S, D358G, D368H (protein)
chain: B1 chain with D293T, G319S, D358G, D361Q, D368H
B7: Kumamolysin-As S262G, T292S, N291D, G319S, D358G, D368H (protein)
chain: B1 chain with S262G, T292S, G319S, D358G, D361Q, D368H
B8: Kumamolysin-As N291D, D293A, G319S, D358G, Q361D, D368H (protein)
chain: B1 chain with D293A, G319S, D358G, D368H
B9: Kumamolysin-As N291D, D293A, D358G, Q361D (protein)
chain: B1 chain with D293A, D358G
B10: Kumamolysin-As N291D, G319S, S354N, D358G, Q361D, D368H (protein)
chain: B1 chain with G319S, S354N, D358G, D368H
B11: Kumamolysin-As G319S, S354N, D358G, D368H (protein)
chain: B1 chain with D291N, G319S, S354N, D358G, D361Q, D368H
B12: Kumamolysin-As D358G (protein)
chain: B1 chain with D291N, D358G, D361Q
B13: Kumamolysin-As G319S, D368S (protein)
chain: B1 chain with D291N, G319S, D361Q, D368S
B14: Kumamolysin-As S354N, D358G, D368H (protein)
chain: B1 chain with D291N, S354N, D358G, D361Q, D368H
B15: Kumamolysin-As N291D, G319S, D358G, D368H (protein)
chain: B1 chain with G319S, D358G, D361Q, D368H
B16: Kumamolysin-As T292S, N291D, G319S, D358G, D368H (protein)
chain: B1 chain with T292S, G319S, D358G, D361Q, D368H
B17: Kumamolysin-As N291D, G319S, D358G, Q361D, D368H (protein)
chain: B1 chain with G319S, D358G, D368H
B18: Kumamolysin-As N291D, D293A, Q361D, D358N (protein)
chain: B1 chain with D293A, D358N
B19: Kumamolysin-As D293A (protein)
chain: B1 chain with D291N, D293A, D361Q
B20: Kumamolysin-As T357A (protein)
chain: B1 chain with D291N, T357A, D361Q
B21: Kumamolysin-As N291D, Q361D, D358G (protein)
chain: B1 chain with D358G
B22: Kumamolysin-As D358G, D368H (protein)
chain: B1 chain with D291N, D358G, D361Q, D368H
B23: Kumamolysin-As V119D, S262K, D293T, N291D, G319S, D358G, D368H (protein)
chain: B1 chain with V119D, S262K, D293T, G319S, D358G, D361Q, D368H
B24: Kumamolysin-As N291D (protein)
chain: B1 chain with D361Q
B25: Kumamolysin-As N291D, D293A, G319S, S354N, D358G, Q361D, D368H (protein)
chain: B1 chain with D293A, G319S, S354N, D358G, D368H
B26: Kumamolysin-As N291D, D293A, D358N (protein)
chain: B1 chain with D293A, D358N, D361Q
B27: Kumamolysin-As G319S, D358G, D368H (protein)
chain: B1 chain with D291N, G319S, D358G, D361Q, D368H
B28: Kumamolysin-As D358N (protein)
chain: B1 chain with D291N, D358N, D361Q
B29: Homologue 26 (NCBI YP_004030750) (protein)
chain: MHSYLKQQSHMQSYLEQENHMRSYLEMRKKPYFDDLANIRPGGLTPAQVCQAYQFAKVQPVRPVKLGIVSLAGQYLSSDMSKAFTGYGLPTPVVSTAGSQVLGDLWSNVENMMDIEIAGAAWAYATGTAATLLMQFEPNNETGIPNAINALVAAGCEVISISWGAPANLQTMEAITARKEACKQAAVQNVHVFAASGDESLNDGTNSRTPDDPCCDPNVWGVGGTRLVLQADGSIAQESAWGDGNAADKGGGGGFDSREPLPDYQVGVVHSEHRGSPDSSANADPGTGYAIVANGQWLIGGGTSASAPLTAGYVAAILSTLPGPISQSVLQRKLYTAHKTAFRDILLGSNGAPARPGWEEATGLGSINGPGLAAALQS
B30: Homologue 13 (NCBI YP_004348568) (protein)
chain: MARHLHAGSEPKVITESKCIGACDPAERIHVTVMLRREGEQALDALVDKLASGDPAAKPVSREDFAKRFGARADDIQHTEAFAKRHQLTVERVDPVQSVVELAGTIAQFENAFGVKLEKYEHHAIGSFRARTGAIALPDELHDAVTAVLGLDTRPQAHPHFRFRPPFQPARSGAGTSYTPLQLASIYNFPEGDGAGQCIALVELGGGYRAADIRQYFEQLGVKPPKLVDVSVNGGRNAPTDDPNGPDGEVALDIEVAGAIAPGATIAVYFAGNSDAGFIQSVNQAIHDSTNRPSVVSISWGGPEASWTQQSITAFNNVLKTAASLGVTVCAASGDSGSSDGLQDGSNHVDFPASSPYVLACGGTTLDAQAGQGIRREVVWNDEAASGGAGGGGVSAVFPAPSYQKGLSAKATGGGSTPLSQRGVPDVAGDASPTTGYIISIAGTTAVLGGTSAVAPLWAALIARINANGKSPVGWANPKLYAQPGAFHDITQGNNGAFAASEGWDACTGLGSPDGAKVAAALQGASGGSQQGRATGA
B31: Homologue 12 (NCBI YP_003658449) (protein)
chain: MTQPRYTPLPGSEREAPLLAARSNATAARASRAQTASATVVLRRRSELPEALVLDQQFISSDELAARYGADPVDIEKVRSVLERFKVSVVEVDAASRRVKVEGAVADIERAFNIALHSASGTDPHSGRGFEYRYRTGVLSVPAELGGIVTAVLGLDNRRQAETRLRVVPAAALGSSYTPVQLGEIYNFPQDATGAGQRIAIIELGGGYTPAGLRRYFASLGVVPPKVAAVSVDGAQNAPGPDPGADGEVQLDVEVAGALAPGAHVLVYFAPNTDQGFLDAVSQAAHATPPPTAISISWGASEDSWTASARDALNQALRDAAALGVTVTAAAGDSGSSDGVPDRRAHVDFPASSPYVLATGGTSLRADPATGVVQSETVWNDSQGSTGGGVSDVFPRPAWQAHVDVPHAGRGVPDVSAVADPATGYQVLVDNQPAVIGGTSAVAPLWAALVARLAESLGRPLGLLQPLVYPRTPGSTAYPGFRDITIGNNGAYKAGKGWDAATGLGVPDGTELLAHLRGLNGSE

Numbering of substitutions follows the chain as printed. Names and notes keep the numbering of the source.

The target of the first data set is T1, fluorescently quenched α-gliadin hexapeptide analogue QXL520-PQPQLP-K(5-FAM)-NH2.
T1 chain: PQPQLP
Turning to B1, the Fold Change in Activity of PQ Hydrolysis Relative to Wild Type Kumamolysin-As turned out to be 7.5 fold.

Regarding B2, the Fold Change in Activity of PQ Hydrolysis Relative to Wild Type Kumamolysin-As was found to be 15 fold.

The protein B3 registered a Fold Change in Activity of PQ Hydrolysis Relative to Wild Type Kumamolysin-As of 54.6 fold.

As to B4, the Fold Change in Activity of PQ Hydrolysis Relative to Wild Type Kumamolysin-As came out at 18.9 fold.

On to B5, for which the Fold Change in Activity of PQ Hydrolysis Relative to Wild Type Kumamolysin-As was 62 fold.

As to B6, the Fold Change in Activity of PQ Hydrolysis Relative to Wild Type Kumamolysin-As came out at 58 fold.

B7 had a Fold Change in Activity of PQ Hydrolysis Relative to Wild Type Kumamolysin-As of 29 fold.

The protein B8 showed a Fold Change in Activity of PQ Hydrolysis Relative to Wild Type Kumamolysin-As of 40.9 fold.

B9 had a Fold Change in Activity of PQ Hydrolysis Relative to Wild Type Kumamolysin-As of 15 fold.

In turn, B10 yielded a Fold Change in Activity of PQ Hydrolysis Relative to Wild Type Kumamolysin-As of 50 fold.

Take B11: the Fold Change in Activity of PQ Hydrolysis Relative to Wild Type Kumamolysin-As turned out to be 5 fold.

Consider B12, for which the Fold Change in Activity of PQ Hydrolysis Relative to Wild Type Kumamolysin-As amounted to 3 fold.

Turning to B13, the Fold Change in Activity of PQ Hydrolysis Relative to Wild Type Kumamolysin-As was determined as 2 fold.

Protein B14 came in with a Fold Change in Activity of PQ Hydrolysis Relative to Wild Type Kumamolysin-As of 9 fold.

The protein B15 showed a Fold Change in Activity of PQ Hydrolysis Relative to Wild Type Kumamolysin-As of 93 fold.

Protein B16 showed a Fold Change in Activity of PQ Hydrolysis Relative to Wild Type Kumamolysin-As of 49 fold.

B17: the Fold Change in Activity of PQ Hydrolysis Relative to Wild Type Kumamolysin-As is 23.1 fold.

On to B18, for which the Fold Change in Activity of PQ Hydrolysis Relative to Wild Type Kumamolysin-As was determined as 14.8 fold.

The protein B19 had a Fold Change in Activity of PQ Hydrolysis Relative to Wild Type Kumamolysin-As of 3 fold.

For B20, the Fold Change in Activity of PQ Hydrolysis Relative to Wild Type Kumamolysin-As came out at 2 fold.

Consider B21, for which the Fold Change in Activity of PQ Hydrolysis Relative to Wild Type Kumamolysin-As was 20 fold.

Regarding B22, the Fold Change in Activity of PQ Hydrolysis Relative to Wild Type Kumamolysin-As was determined as 6 fold.

For the protein B23, the Fold Change in Activity of PQ Hydrolysis Relative to Wild Type Kumamolysin-As is 120 fold.

The protein B24 came in with a Fold Change in Activity of PQ Hydrolysis Relative to Wild Type Kumamolysin-As of 10 fold.

B25 had a Fold Change in Activity of PQ Hydrolysis Relative to Wild Type Kumamolysin-As of 58 fold.

B26 had a Fold Change in Activity of PQ Hydrolysis Relative to Wild Type Kumamolysin-As of 24 fold.

As for B27, the Fold Change in Activity of PQ Hydrolysis Relative to Wild Type Kumamolysin-As is 7 fold.

B28: the Fold Change in Activity of PQ Hydrolysis Relative to Wild Type Kumamolysin-As was 4 fold.

For the next data set, the target named is T2, 33mer peptide (LQLQPFPQPQLPYPQPQLPYPQPQLPYPQPQPF).
T2 chain: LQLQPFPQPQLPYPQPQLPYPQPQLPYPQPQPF
Regarding B29, the “Degradation pattern of 33mer (60 min)” value was “Max-like” and the “activity against the 33mer peptide” value was “had very strong activity comparable to KumaMax™ at breaking down the 33mer peptide”.

For B30, the “Degradation pattern of 33mer (60 min)” value was “Max-like” and the “activity against the 33mer peptide” value was “demonstrated significant activity against the 33mer peptide”.

On to B31, for which the “Degradation pattern of 33mer (60 min)” value is “WT-like”.
